We go through three molecules from paper PMC11147762.

In one data set the target is DDX41-R525H (Homo sapiens, UniProt Q9UJV9 1-622, R525H). As to the kind of experiment: EMSA; EMSA, 0-1300 nM protein with 10 nM nucleic acid; buffer, salt, pH and temperature not in material. Particulars: protein: recombinant; label: 5'-Cy5 on oligo1; 5'-Cy3 on RNA; bubble of oligo1/oligo2 with 25-nt RNA paired to oligo2.
A further data set addresses DDX41-ΔHel-Y259C (Homo sapiens, UniProt Q9UJV9 1-406+568-622, Y259C;internal_change). The description is as above. Particulars: protein: recombinant; label: 5'-Cy5 on oligo1; 5'-Cy3 on RNA; bubble of oligo1/oligo2 with 25-nt RNA paired to oligo2.
In data set [1] the target is T1, DDX41-ΔHel-WT (DDX41 D3) (Homo sapiens, UniProt Q9UJV9 1-406+568-622, internal_change). The data set is described as above. Particulars: protein: recombinant, label: 5'-Cy5 on oligo1.
The target in data set [2] is T1, DDX41-ΔHel-WT (DDX41 D3). As to the kind of experiment: EMSA; m6A had no effect on affinity; EMSA, 0-1300 nM protein with 10 nM nucleic acid; buffer, salt, pH and temperature not in material. Particulars: protein: recombinant; label: 5'-Cy5 on oligo1; 5'-Cy3 on RNA; bubble of oligo1/oligo2 with 25-nt RNA paired to oligo2.

T1 sequence (Q9UJV9 other isoform, or with tags, fused parts or gaps | mutant): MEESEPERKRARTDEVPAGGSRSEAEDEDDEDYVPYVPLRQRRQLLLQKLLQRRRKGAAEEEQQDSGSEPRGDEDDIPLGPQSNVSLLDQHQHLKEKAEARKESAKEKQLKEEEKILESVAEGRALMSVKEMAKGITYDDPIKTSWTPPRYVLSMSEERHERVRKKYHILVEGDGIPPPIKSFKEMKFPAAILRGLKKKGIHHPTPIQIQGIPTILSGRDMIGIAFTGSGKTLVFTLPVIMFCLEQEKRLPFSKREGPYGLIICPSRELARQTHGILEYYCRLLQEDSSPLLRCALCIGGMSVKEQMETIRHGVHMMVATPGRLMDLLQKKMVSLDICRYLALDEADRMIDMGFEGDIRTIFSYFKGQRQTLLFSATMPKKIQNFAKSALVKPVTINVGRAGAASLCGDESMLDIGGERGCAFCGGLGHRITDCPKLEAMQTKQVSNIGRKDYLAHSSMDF
DDX41-ΔHel-Y259C, sequence (Q9UJV9 other isoform, or with tags, fused parts or gaps Y259C/| Y259C Y259C): as the sequence (Q9UJV9 other isoform, or with tags, fused parts or gaps | mutant) above, with Y259C counted along it
DDX41-R525H, sequence (Q9UJV9 whole entry R525H): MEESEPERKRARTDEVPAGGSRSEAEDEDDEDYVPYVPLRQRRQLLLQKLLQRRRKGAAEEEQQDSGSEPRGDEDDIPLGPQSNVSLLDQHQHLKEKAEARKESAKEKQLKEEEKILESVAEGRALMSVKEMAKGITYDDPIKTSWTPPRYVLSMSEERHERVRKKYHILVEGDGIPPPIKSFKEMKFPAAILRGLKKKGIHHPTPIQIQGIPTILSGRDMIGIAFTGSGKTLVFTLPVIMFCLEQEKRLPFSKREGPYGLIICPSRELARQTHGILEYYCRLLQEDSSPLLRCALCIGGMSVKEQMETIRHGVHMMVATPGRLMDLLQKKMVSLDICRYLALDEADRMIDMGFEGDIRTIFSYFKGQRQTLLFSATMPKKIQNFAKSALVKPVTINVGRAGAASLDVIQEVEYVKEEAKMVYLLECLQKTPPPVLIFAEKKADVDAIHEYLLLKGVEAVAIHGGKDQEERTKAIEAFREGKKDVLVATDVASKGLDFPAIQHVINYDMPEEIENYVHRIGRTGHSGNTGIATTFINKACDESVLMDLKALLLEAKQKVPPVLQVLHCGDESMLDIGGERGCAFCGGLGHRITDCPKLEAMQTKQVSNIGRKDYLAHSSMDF

B1: R-loop (mixed)
DNA 1: GCCAGGGACGAGGTGAACCTGCAGGTGGGCGGCTACTACTTAGATGTCATCCGAGGCTTATTGGTAGAATTCGGCAGCGTCATGCGACGGC
DNA 2: GCCGTCGCATGACGCTGCCGAATTCTACCACGCGATTCATACCTGTCGTGCCAGCTGCTTTGCCCACCTGCAGGTTCACCTCGTCCCTGGC
RNA: GCAGCUGGCACGACAGGUAUGAAUC
With B1, the binding result is reported as “binds” with DDX41-R525H; “binds” with DDX41-ΔHel-Y259C; “binds” with DDX41-ΔHel-WT (DDX41 D3) [1] (5'-Cy3 on RNA, bubble of oligo1/oligo2 with 25-nt RNA paired to oligo2).

B2: D-loop (structured_DNA)
DNA 1: B1 DNA 1
DNA 2: B1 DNA 2
DNA 3: GCAGCTGGCACGACAGGTATGAATC
Take B2: the binding result in the data set with DDX41-ΔHel-WT (DDX41 D3) [1] (bubble with 25-nt DNA paired to oligo2) is recorded as “binds”.

B3: m6A R-loop (mixed)
DNA 1: B1 DNA 1
DNA 2: B1 DNA 2
RNA: GCAGCUGGCACGACAGGUAUGAAUC
modifications: m6A in RNA strand; positions not visible in material
As to B3, in the data set with DDX41-ΔHel-WT (DDX41 D3) [2], the binding result is reported as “binds”.
